We go through seven variants from paper PMC3688503 (2013).

The labels stand for the following.
B1: wild-type MTM1-B10 fusion protein [human] / wild-type MTMR12-GFP protein [human] (parent complex)
chain 1: MASASTSKYNSHSLENESIKRTSRDGVNRDLTEAVPRLPGETLITDKEVIYICPFNGPIKGRVYITNYRLYLRSLETDSSLILDVPLGVISRIEKMGGATSRGENSYGLDITCKDMRNLRFALKQEGHSRRDMFEILTRYAFPLAHSLPLFAFLNEEKFNVDGWTVYNPVEEYRRQGLPNHHWRITFINKCYELCDTYPALLVVPYRASDDDLRRVATFRSRNRIPVLSWIHPENKTVIVRCSQPLVGMSGKRNKDDEKYLDVIRETNKQISKLTIYDARPSVNAVANKATGGGYESDDAYHNAELFFLDIHNIHVMRESLKKVKDIVYPNVEESHWLSSLESTHWLEHIKLVLTGAIQVADKVSSGKSSVLVHCSDGWDRTAQLTSLAMLMLDSFYRSIEGFEILVQKEWISFGHKFASRIGHGDKNHTDADRSPIFLQFIDCVWQMSKQFPTAFEFNEQFLIIILDHLYSCRFGTFLFNCESARERQKVTERTVSLWSLINSNKEKFKNPFYTKEINRVLYPVASMRHLELWVNYYIRWNPRIKQQQPNPVEQRYMELLALRDEYIKRLEELQLANSAKLSDPPTSPSSPSQMMPHVQTHF
chain 2: MLGKGVVGGGGGTKAPKPSFVSYVRPEEIHTNEKEVTEKEVTLHLLPGEQLLCEASTVLKYVQEDSCQHGVYGRLVCTDFKIAFLGDDESALDNDETQFKNKVIGENDITLHCVDQIYGVFDEKKKTLFGQLKKYPEKLIIHCKDLRVFQFCLRYTKEEEVKRIVSGIIHHTQAPKLLKRLFLFSYATAAQNNTVTDPKNHTVMFDTLKDWCWELERTKGNMKYKAVSVNEGYKVCERLPAYFVVPTPLPEENVQRFQGHGIPIWCWSCHNGSALLKMSALPKEQDDGILQIQKSFLDGIYKTIHRPPYEIVKTEDLSSNFLSLQEIQTAYSKFKQLFLIDNSTEFWDTDIKWFSLLESSSWLDIIRRCLKKAIEITECMEAQNMNVLLLEENASDLCCLISSLVQLMMDPHCRTRIGFQSLIQKEWVMGGHCFLDRCNHLRQNDKEEVPVFLLFLDCVWQLVHQHPPAFEFTETYLTVLSDSLYIPIFSTFFFNSPHQKDTNMGREGQDTQSKPLNLLTVWDWSVQFEPKAQTLLKNPLYVEKPKLDKGQRKGMRFKHQRQLSLPLTQSKSSPKRGFFREETDHLIKNLLGKRISKLINSSDELQDNFREFYDSWHSKSTDYHGLLLPHIEGPEIKVWAQRYLRWIPEAQILGGGQVATLSKLLEMMEEVQSLQEKIDERHHSQQAPQAEAPCLLRNSARLSSLFPFALLQRHSSKPVLPTSGWKALGDEDDLAKREDEFVDLGDV

The variants in this test derive from B1. Nature of the test: co-immunoprecipitation (anti-B10 IP, western blot quantification); overexpressed in Cos1 cells; IP with anti-B10 tag antibody; parent: 1; read off a plot. For orientation: Immunoblotting shows a protein as a band on a membrane.
For the variant chain 1 R241C, the response is about 1 AU.
In the case of chain 1 V49F it was about 0.05 AU; in that of chain 1 R421Q, about 0.92 AU; in that of chain 1 R184G, about 0.05 AU.
As for chain 1 R69C, the figure is about 0.05 AU; as for chain 1 P205L, about 0.07 AU.
Consider chain 1 C375S, for which the response was about 0.92 AU.
